B1: Transmembrane protein 79 (Homo sapiens), Q9BSE2 (parent)
chain: MTEQETLALLEVKRSDSPEKSSPQALVPNGRQPEGEGGAESPGAESLRVGSSAGSPTAIEGAEDGLDSTVSEAATLPWGTGPQPSAPFPDPPGWRDIEPEPPESEPLTKLEELPEDDANLLPEKAARAFVPIDLQCIERQPQEDLIVRCEAGEGECRTFMPPRVTHPDPTERKWAEAVVRPPGCSCGGCGSCGDREWLRAVASVGAALILFPCLLYGAYAFLPFDVPRLPTMSSRLIYTLRCGVFATFPIVLGILVYGLSLLCFSALRPFGEPRREVEIHRRYVAQSVQLFILYFFNLAVLSTYLPQDTLKLLPLLTGLFAVSRLIYWLTFAVGRSFRGFGYGLTFLPLLSMLMWNLYYMFVVEPERMLTATESRLDYPDHARSASDYRPRPWG
partner: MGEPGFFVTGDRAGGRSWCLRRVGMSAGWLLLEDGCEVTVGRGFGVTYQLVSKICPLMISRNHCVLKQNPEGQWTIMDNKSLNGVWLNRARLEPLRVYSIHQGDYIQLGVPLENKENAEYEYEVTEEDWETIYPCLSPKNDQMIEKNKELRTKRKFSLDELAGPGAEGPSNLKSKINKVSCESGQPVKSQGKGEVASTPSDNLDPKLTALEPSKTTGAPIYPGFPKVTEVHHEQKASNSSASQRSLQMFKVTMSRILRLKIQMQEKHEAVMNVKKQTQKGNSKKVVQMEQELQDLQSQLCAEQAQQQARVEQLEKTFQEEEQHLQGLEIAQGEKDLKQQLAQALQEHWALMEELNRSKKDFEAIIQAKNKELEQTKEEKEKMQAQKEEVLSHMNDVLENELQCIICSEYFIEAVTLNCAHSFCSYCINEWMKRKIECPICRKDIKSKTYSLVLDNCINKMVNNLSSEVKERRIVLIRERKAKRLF
B2: Myosin light polypeptide 6 (Homo sapiens), P60660 (parent)
chain: MCDFTEDQTAEFKEAFQLFDRTGDGKILYSQCGDVMRALGQNPTNAEVLKVLGNPKSDEMNVKVLDFEHFLPMLQTVAKNKDQGTYEDYVEGLRVFDKEGNGTVMGAEIRHVLVTLGEKMTEEEVEMLVAGHEDSNGCINYEAFVRHILSG
B3: Ribosomal RNA-processing protein 7 homolog A (Homo sapiens), Q9Y3A4 (parent)
chain: MVARRRKCAARDPEDRIPSPLGYAAIPIKFSEKQQASHYLYVRAHGVRQGTKSTWPQKRTLFVLNVPPYCTEESLSRLLSTCGLVQSVELQEKPDLAESPKESRSKFFHPKPVPGFQVAYVVFQKPSGVSAALALKGPLLVSTESHPVKSGIHKWISDYADSVPDPEALRVEVDTFMEAYDQKIAEEEAKAKEEEGVPDEEGWVKVTRRGRRPVLPRTEAASLRVLERERRKRSRKELLNFYAWQHRESKMEHLAQLRKKFEEDKQRIELLRAQRKFRPY

Variants of: B1
Settings: with rnf8_human RNF8, O76064

| effect of a mutation on the interaction | Variant |
| --- | --- |
| with no effect | V147M |
| with no effect | D144G |
| with no effect | S104T |

Variants of: B2
Settings: with ats12_human ADAMTS12, P58397
Chain of ats12_human ADAMTS12, P58397 (P58397 whole entry): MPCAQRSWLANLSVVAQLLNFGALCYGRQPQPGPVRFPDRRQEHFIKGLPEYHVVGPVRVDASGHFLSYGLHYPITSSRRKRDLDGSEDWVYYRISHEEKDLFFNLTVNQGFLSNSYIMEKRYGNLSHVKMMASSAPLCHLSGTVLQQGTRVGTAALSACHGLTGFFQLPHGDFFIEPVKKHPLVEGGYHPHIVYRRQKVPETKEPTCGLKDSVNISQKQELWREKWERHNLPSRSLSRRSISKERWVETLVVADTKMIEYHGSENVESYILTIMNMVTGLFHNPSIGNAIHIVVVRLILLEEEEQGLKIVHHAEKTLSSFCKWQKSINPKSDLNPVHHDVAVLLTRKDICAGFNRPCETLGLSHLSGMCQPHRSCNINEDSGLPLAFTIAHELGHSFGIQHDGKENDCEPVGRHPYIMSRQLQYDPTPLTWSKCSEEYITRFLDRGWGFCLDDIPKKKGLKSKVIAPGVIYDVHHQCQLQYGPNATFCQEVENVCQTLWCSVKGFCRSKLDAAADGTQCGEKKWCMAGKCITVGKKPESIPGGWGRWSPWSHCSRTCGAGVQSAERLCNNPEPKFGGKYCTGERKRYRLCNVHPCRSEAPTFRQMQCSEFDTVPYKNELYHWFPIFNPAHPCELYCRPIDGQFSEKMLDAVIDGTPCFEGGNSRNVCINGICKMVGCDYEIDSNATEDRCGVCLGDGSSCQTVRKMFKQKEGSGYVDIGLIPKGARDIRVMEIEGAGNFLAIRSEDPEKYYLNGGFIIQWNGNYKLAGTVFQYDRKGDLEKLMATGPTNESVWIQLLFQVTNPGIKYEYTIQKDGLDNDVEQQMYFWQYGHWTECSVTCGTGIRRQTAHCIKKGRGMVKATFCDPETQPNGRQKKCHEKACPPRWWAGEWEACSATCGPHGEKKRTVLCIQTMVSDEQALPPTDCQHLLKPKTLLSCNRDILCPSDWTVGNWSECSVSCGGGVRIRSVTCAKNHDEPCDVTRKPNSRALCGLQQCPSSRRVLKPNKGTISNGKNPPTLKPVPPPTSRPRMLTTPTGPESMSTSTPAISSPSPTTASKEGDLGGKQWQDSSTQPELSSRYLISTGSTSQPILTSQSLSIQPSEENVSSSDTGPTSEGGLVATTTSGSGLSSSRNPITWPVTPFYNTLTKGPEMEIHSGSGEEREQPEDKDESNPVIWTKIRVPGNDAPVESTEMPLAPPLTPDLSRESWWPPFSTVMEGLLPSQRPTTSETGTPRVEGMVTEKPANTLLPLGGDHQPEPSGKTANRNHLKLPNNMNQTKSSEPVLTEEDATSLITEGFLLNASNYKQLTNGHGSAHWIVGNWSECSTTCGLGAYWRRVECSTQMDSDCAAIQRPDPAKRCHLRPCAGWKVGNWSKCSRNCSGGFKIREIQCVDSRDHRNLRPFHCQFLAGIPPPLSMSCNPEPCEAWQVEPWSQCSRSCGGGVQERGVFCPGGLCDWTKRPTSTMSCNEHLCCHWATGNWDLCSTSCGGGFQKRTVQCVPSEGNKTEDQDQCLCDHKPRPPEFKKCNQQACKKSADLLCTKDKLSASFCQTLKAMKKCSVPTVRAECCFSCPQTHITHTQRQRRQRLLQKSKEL

| effect of a mutation on the interaction | Variant |
| --- | --- |
| disrupting interaction strength | C138S |

Variants of: B2
Settings: with cpsf5_human NUDT21, O43809
Chain of cpsf5_human NUDT21, O43809 (O43809 whole entry): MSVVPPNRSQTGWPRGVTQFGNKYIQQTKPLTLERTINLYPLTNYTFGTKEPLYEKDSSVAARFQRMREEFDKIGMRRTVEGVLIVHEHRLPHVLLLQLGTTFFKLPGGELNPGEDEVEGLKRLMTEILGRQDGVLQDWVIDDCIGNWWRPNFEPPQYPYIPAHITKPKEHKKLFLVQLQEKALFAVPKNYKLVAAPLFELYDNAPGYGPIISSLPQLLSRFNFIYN

| effect of a mutation on the interaction | Variant |
| --- | --- |
| disrupting interaction strength | C138S |

Variants of: B3
Settings: with tfp11_human TFIP11, Q9UBB9
Chain of tfp11_human TFIP11, Q9UBB9 (Q9UBB9 whole entry): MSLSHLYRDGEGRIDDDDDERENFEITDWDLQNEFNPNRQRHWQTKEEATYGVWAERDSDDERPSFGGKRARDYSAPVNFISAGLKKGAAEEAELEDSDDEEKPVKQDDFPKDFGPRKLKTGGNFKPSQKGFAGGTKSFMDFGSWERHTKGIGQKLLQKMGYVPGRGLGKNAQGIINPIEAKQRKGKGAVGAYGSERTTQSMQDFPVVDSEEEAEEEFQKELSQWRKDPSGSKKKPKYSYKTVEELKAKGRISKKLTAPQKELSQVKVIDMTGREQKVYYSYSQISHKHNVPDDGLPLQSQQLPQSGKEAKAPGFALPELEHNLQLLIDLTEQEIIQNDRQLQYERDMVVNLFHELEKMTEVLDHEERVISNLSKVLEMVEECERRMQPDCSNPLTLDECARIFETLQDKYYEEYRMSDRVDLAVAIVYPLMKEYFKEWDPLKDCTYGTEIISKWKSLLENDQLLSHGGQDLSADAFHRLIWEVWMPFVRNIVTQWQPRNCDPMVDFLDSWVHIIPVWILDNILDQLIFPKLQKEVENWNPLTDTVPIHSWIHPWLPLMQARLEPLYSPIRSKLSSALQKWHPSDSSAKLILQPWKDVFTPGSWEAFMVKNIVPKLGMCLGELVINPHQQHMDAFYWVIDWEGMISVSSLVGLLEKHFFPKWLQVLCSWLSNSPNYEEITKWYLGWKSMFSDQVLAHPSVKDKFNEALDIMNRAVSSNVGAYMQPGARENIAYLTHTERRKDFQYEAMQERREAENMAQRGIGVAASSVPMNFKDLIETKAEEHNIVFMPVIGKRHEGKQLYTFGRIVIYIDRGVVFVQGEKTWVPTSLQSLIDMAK

| effect of a mutation on the interaction | Variant |
| --- | --- |
| disrupting interaction strength | L75M |
| with no effect | V85I |

— IntAct's records for PubMed 31515488
